Experimental data as given in paper PMC7053999, “ParB spreading on DNA requires cytidine triphosphate in vitro” (eLife, 2020).
Where a chain is given by its changes, count along the chain named. In names and notes the source's numbering stands.

Columns and labels:
[1] = molecular target: T1, TetR (class B, from Tn10) (Escherichia coli, UniProt P04483); test: BLI, release of TetR roadblock from tetO DNA; assay type: binding; conditions: 3 uM ahTc, 1 uM TetR, 1 uM ParB, 1 mM CTP, 170 bp closed parS-tetO DNA, Mg2+, 22 °C
T1 construct: C-terminal His6 (pET21b), E. coli Rosetta (DE3)
T1 sequence (P04483 whole entry): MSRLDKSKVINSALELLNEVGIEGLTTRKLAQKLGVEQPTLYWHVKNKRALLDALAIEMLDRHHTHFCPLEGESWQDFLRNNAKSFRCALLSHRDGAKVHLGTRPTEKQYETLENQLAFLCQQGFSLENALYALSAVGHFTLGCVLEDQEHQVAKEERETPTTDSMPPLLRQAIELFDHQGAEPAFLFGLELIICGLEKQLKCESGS

Zymomonas mobilis ParB = molecular target: T2, Zymomonas mobilis ParB (Zymomonas mobilis, UniProt F8ETX3); test: BLI, ParB accumulation on closed […] bp parS DNA; assay type: biochemical; conditions: 0.01 mM CTP, 1 uM ParB, Mg2+, pH 8.0, 22 °C
T2 construct: N-terminal His6-MBP (TEV) tag kept, E. coli Rosetta (DE3); chromosomal ParB
T2 sequence (F8ETX3 1-311): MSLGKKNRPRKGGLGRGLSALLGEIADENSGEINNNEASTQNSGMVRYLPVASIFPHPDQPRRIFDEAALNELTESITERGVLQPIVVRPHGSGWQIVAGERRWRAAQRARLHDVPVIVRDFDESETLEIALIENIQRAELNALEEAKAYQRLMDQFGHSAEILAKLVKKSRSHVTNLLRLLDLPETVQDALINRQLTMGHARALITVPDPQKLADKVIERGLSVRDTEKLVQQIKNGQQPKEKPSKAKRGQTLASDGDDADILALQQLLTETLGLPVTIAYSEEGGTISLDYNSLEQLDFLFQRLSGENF

Caulobacter ParB [2] = molecular target: T3, Caulobacter ParB (Caulobacter vibrioides, UniProt B8GW30); test: DRaCALA membrane-spotting with radiolabelled CTP; assay type: binding; conditions: 22 bp parS DNA needed, Mg2+, pH 8.0, room temperature; labelled compound
T3 construct: full-length, C-terminal His6 (pET21b), E. coli Rosetta (DE3), dimer

Caulobacter ParB [3] = molecular target: T4, Caulobacter ParB (Caulobacter vibrioides, UniProt B8GW30, C297S); test: BLI, ParB accumulation on closed […] bp parS DNA; assay type: biochemical; conditions: 1 mM CTP, 1 uM ParB, Mg2+, pH 8.0, 22 °C; legend prints C97S in one place
T4 construct: full-length, C-terminal His6 (pET21b), E. coli Rosetta (DE3), dimer
T4 sequence (B8GW30 whole entry C297S): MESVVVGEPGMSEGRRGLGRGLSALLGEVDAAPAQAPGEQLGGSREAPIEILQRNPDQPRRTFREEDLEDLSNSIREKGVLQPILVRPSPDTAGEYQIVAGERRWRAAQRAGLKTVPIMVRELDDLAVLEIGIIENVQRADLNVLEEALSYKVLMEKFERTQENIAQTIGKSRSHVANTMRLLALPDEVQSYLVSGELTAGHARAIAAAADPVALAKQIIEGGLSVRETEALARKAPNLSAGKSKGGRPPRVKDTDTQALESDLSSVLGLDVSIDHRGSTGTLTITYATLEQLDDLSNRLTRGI

[4] = molecular target: T5, Xanthomonas campestris ParB (Xanthomonas campestris, UniProt Q8P466); test: BLI, ParB accumulation on closed […] bp parS DNA; assay type: biochemical; conditions: 0.01 mM CTP, 1 uM ParB, Mg2+, pH 8.0, 22 °C
T5 construct: N-terminal His6-MBP (TEV) tag kept, E. coli Rosetta (DE3); chromosomal ParB
T5 sequence (Q8P466 1-309): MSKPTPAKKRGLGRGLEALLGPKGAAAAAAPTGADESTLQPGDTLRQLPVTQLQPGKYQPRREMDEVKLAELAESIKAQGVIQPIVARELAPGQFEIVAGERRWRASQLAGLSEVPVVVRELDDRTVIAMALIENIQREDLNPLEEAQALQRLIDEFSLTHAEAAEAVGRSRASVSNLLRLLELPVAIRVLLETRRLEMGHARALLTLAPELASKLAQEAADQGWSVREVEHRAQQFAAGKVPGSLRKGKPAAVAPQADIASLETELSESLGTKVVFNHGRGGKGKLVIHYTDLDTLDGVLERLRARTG

Caulobacter ParB [5] = molecular target: T6, Caulobacter ParB (Caulobacter vibrioides, UniProt B8GW30, Q35C/C297S); test: BMOE cross-linking of N-terminal domains, SDS-PAGE; assay type: binding; conditions: 1 mM CTP, 10 uM ParB, no parS DNA, Mg2+, pH 7.4, room temperature
T6 construct: full-length, C-terminal His6 (pET21b), E. coli Rosetta (DE3), dimer
T6 sequence (B8GW30 whole entry Q35C/C297S, the tested form may be a part): as the sequence (B8GW30 whole entry C297S) above, with Q35C counted along it

[6] = molecular target: T7, Caulobacter ParB-His6 (WT) (Caulobacter crescentus, UniProt B8GW30 1-304); test: BLI; 0.125-2 uM ParB, no NTP; BLI at 22 C: 100 mM Tris-HCl pH 8.0, 100 mM NaCl, 1 mM MgCl2, 0.005% Tween 20; 1 uM protein dimer. Pull-down: same buffer, room temperature, 5 min, 1 uM ParB, 1 mM NTP; conditions: protein: recombinant; tags: C-terminal His6; chain copies: 2; label: 5' biotin on strand 1; blunt
T7 sequence: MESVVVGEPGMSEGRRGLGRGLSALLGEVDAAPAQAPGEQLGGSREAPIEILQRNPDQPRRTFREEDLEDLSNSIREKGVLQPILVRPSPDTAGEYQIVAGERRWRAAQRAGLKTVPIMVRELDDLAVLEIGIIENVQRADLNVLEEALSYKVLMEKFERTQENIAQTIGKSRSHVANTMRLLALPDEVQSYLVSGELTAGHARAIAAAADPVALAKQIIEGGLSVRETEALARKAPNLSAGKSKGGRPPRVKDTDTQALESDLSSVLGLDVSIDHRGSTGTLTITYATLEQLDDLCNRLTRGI

[7] = molecular target: T8, TetR-His6 (class B, from Tn10) (Tn10, UniProt P04483 1-207); test: BLI; no NTP, Mg2+; BLI at 22 C: 100 mM Tris-HCl pH 8.0, 100 mM NaCl, 1 mM MgCl2, 0.005% Tween 20; 1 uM protein dimer. Pull-down: same buffer, room temperature, 5 min, 1 uM ParB, 1 mM NTP; conditions: protein: recombinant; tags: C-terminal His6; chain copies: 2; label: 5' biotin on strand 1; blunt
T8 sequence (P04483 whole entry): as the sequence (P04483 whole entry) above

[8] = molecular target: T7, Caulobacter ParB-His6 (WT); test: BLI; 1 mM CDP, Mg2+; BLI at 22 C: 100 mM Tris-HCl pH 8.0, 100 mM NaCl, 1 mM MgCl2, 0.005% Tween 20; 1 uM protein dimer. Pull-down: same buffer, room temperature, 5 min, 1 uM ParB, 1 mM NTP; conditions: protein: recombinant; tags: C-terminal His6; chain copies: 2; label: 5' biotin on strand 1; blunt
[9] = molecular target: T8, TetR-His6 (class B, from Tn10); test: BLI; 0.125-2 uM TetR, no NTP; BLI at 22 C: 100 mM Tris-HCl pH 8.0, 100 mM NaCl, 1 mM MgCl2, 0.005% Tween 20; 1 uM protein dimer. Pull-down: same buffer, room temperature, 5 min, 1 uM ParB, 1 mM NTP; conditions: protein: recombinant; tags: C-terminal His6; chain copies: 2; label: 5' biotin on strand 1; blunt
[10] = molecular target: T7, Caulobacter ParB-His6 (WT); test: BLI; ParB-CTP prebound; dissociation in 1 mM CTP, Mg2+; BLI at 22 C: 100 mM Tris-HCl pH 8.0, 100 mM NaCl, 1 mM MgCl2, 0.005% Tween 20; 1 uM protein dimer. Pull-down: same buffer, room temperature, 5 min, 1 uM ParB, 1 mM NTP; conditions: protein: recombinant; tags: C-terminal His6; chain copies: 2; label: biotin at both 5' ends; blunt; both ends tethered (closed); polymerase may add 3' A
[11] = molecular target: T7, Caulobacter ParB-His6 (WT); test: BLI; 1 mM CTP, Mg2+; BLI at 22 C: 100 mM Tris-HCl pH 8.0, 100 mM NaCl, 1 mM MgCl2, 0.005% Tween 20; 1 uM protein dimer. Pull-down: same buffer, room temperature, 5 min, 1 uM ParB, 1 mM NTP; conditions: protein: recombinant; tags: C-terminal His6; chain copies: 2; label: biotin at both 5' ends; blunt; both ends tethered (closed); polymerase may add 3' A
[12] = molecular target: T7, Caulobacter ParB-His6 (WT); test: BLI; 1 mM CTP, Mg2+ (no increase in response); BLI at 22 C: 100 mM Tris-HCl pH 8.0, 100 mM NaCl, 1 mM MgCl2, 0.005% Tween 20; 1 uM protein dimer. Pull-down: same buffer, room temperature, 5 min, 1 uM ParB, 1 mM NTP; conditions: protein: recombinant; tags: C-terminal His6; chain copies: 2; label: biotin at both 5' ends; blunt; both ends tethered (closed); polymerase may add 3' A
[13] = molecular target: T7, Caulobacter ParB-His6 (WT); test: BLI; 1 mM CTP (enhanced); BLI at 22 C: 100 mM Tris-HCl pH 8.0, 100 mM NaCl, 1 mM MgCl2, 0.005% Tween 20; 1 uM protein dimer. Pull-down: same buffer, room temperature, 5 min, 1 uM ParB, 1 mM NTP; conditions: protein: recombinant; tags: C-terminal His6; chain copies: 2; label: biotin at both 5' ends; blunt; both ends tethered (closed); polymerase may add 3' A
[14] = molecular target: the molecule itself; test: cross-linking; 10 µM ParB (Q35C C297S) ± 1 mM NTP (CTP, CTPγS or other NTPs) ± 0.5 µM 22 bp parS dsDNA in 10 mM Tris-HCl pH 7.4, 100 mM NaCl, 1 mM MgCl2, room temperature, 15 min or 1-30 min time course, then 1 mM BMOE; SDS-PAGE, InstantBlue stain

Question: `Cc1c2c(c(O)c3c(O)cccc13)C(=O)[C@]1(O)C(=O)C(C(N)=O)=C(O)[C@@H](N(C)C)[C@@H]1C2` [Anhydrotetracycline] was tested. Which “BLI, release of TetR roadblock from tetO DNA” value [1] did it give?
Answer: The value was “addition of anhydrotetracycline (ahTc), a negative effector of TetR”.

Question: `Nc1ccn([C@@H]2O[C@H](COP(=O)(O)OP(=O)(O)OP(=O)(O)O)[C@@H](O)[C@H]2O)c(=O)n1` [CTP] was tested. Which “BLI, ParB accumulation on closed 169 bp parS DNA” value (“BLI, ParB accumulation” below) (Zymomonas mobilis ParB) did it give?
Answer: The value was “CTP facilitates the association of eight ParB orthologs with DNA”.

Question: And the “DRaCALA membrane-spotting with radiolabelled CTP” value (Caulobacter ParB [2])?
Answer: Its value is “Caulobacter ParB binds to radiolabeled CTP in the presence of parS DNA”.

Question: And the “BLI, ParB accumulation” value (Caulobacter ParB [3])?
Answer: Its value is “Both ParB (C297S) and ParB (Q35C C297S) were competent at spreading”.

Question: And the “BLI, ParB accumulation” value [4]?
Answer: Its value is “CTP facilitates the association of eight ParB orthologs with DNA”.

Question: And the “BMOE cross-linking of N-terminal domains, SDS-PAGE” value (Caulobacter ParB [5])?
Answer: The value was “cross-linking of ParB (Q35C C297S) was also enhanced by CTP and CTPγS”.

B1: 28 bp tetO (dsDNA)
DNA 1: GGGGACTCTATCATTGATAGAGTATGC
DNA 2: GCATACTCTATCAATGATAGAGTCCCC
Question: Does B1 bind [6]?
Answer: Result: no binding

Question: Does B1 bind [7]?
Answer: Result: binds

B2: 20 bp parS (dsDNA)
DNA 1: GGGATGTTTCACGTGAAACA
DNA 2: TGTTTCACGTGAAACATCCC
Question: Which results are given for B2?
Answer: binding result [8]: binds; binding result [9]: no binding

B3: 169 bp parS closed DNA (dsDNA)
DNA 1: CGCCAGGGTTTTCCCAGTCACGACGTTGTAAAACGACGGCCAGTGAATTCGAGCTCGGTACCCGCAGGAGGACGTAGGGTAGGGGGATGTTTCACGTGAAACAGGGGATCCTCTAGAGTCGACCTGCAGGCATGCAAGCTTGGCGTAATCATGGTCATAGCTGTTTCCT
DNA 2: AGGAAACAGCTATGACCATGATTACGCCAAGCTTGCATGCCTGCAGGTCGACTCTAGAGGATCCCCTGTTTCACGTGAAACATCCCCCTACCCTACGTCCTCCTGCGGGTACCGAGCTCGAATTCACTGGCCGTCGTTTTACAACGTCGTGACTGGGAAAACCCTGGCG
Question: How did the binding signal [10] turn out when B3 was run?
Answer: Its binding signal is ~5 fold slower dissociation vs buffer without CTP.

Question: What about the binding signal [11] of the same molecule?
Answer: Its binding signal is ~12 fold BLI response vs no NTP.

B4: 169 bp scrambled parS closed DNA (dsDNA)
DNA 1: B3 DNA 1 with T88A, G89A, T92A, G96T, T97G, G98A, A99G, A100T, A101T, C102T
DNA 2: B3 DNA 2 with G68A, T69A, T70A, T71C, C72T, A73C, C74A, A78T, C81T, A82T
Question: Does B4 bind [12]?
Answer: Result: no binding

B5: 170 bp parS-tetO closed DNA (dsDNA)
DNA 1: CGCCAGGGTTTTCCCAGTCACGACGTTGTAAAACGACGGCCAGAATTCGCAACGTGTGTTTCACGTGAAACAGCCTTGAACTGATAACGACTCTATCATTGATAGAGTGTTCTCTCCACGGGATCCCCAGGCATGCAAGCTTGGCGTAATCATGGTCATAGCTGTTTCCT
DNA 2: AGGAAACAGCTATGACCATGATTACGCCAAGCTTGCATGCCTGGGGATCCCGTGGAGAGAACACTCTATCAATGATAGAGTCGTTATCAGTTCAAGGCTGTTTCACGTGAAACACACGTTGCGAATTCTGGCCGTCGTTTTACAACGTCGTGACTGGGAAAACCCTGGCG
Question: Does B5 bind [13]?
Answer: Result: binds

B6: Caulobacter ParB-His6 (Q35C C297S) (natural protein, Caulobacter crescentus, UniProt P0CAV8 1-304, looked up)
chain: T7 sequence with Q35C, C297S
notes: ParB, chromosome partitioning protein of Caulobacter crescentus; the cross-link reports engagement of the N-terminal domains of two subunits; The lone native cysteine C297 was changed to serine and Q35C was engineered in the N-terminal domain; Cloning in pET21b may add linker residues before the His6 tag (surmised); also called ParB (Q35C C297S); ParB (C297S Q35C); not shown: His6, C-terminal, …
Question: Does B6 bind [14]?
Answer: Result: binds
